Biological target: complement C5 (human) (UniProt P01031)
Test: SPR

Chain of complement C5 (human) (P01031 19-673, chain 1 of 2): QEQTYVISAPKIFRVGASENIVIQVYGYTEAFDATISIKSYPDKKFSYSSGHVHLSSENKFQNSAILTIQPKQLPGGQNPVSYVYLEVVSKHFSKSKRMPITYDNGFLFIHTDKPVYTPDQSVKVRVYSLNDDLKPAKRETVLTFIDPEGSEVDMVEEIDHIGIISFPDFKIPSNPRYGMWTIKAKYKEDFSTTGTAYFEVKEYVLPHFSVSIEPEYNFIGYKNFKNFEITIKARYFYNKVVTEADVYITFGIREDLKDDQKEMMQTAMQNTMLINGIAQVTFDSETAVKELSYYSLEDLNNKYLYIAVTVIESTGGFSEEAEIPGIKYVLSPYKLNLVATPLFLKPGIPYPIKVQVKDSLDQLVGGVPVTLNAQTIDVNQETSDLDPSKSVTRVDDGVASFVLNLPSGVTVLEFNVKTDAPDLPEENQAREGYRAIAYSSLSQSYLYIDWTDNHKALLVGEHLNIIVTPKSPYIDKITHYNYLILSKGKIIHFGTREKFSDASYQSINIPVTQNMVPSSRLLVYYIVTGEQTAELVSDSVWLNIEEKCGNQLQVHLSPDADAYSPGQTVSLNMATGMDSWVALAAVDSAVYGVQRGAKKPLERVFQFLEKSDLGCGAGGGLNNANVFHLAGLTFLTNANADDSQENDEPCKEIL
Chain of complement C5 (human) (P01031 678-1676, chain 2 of 2): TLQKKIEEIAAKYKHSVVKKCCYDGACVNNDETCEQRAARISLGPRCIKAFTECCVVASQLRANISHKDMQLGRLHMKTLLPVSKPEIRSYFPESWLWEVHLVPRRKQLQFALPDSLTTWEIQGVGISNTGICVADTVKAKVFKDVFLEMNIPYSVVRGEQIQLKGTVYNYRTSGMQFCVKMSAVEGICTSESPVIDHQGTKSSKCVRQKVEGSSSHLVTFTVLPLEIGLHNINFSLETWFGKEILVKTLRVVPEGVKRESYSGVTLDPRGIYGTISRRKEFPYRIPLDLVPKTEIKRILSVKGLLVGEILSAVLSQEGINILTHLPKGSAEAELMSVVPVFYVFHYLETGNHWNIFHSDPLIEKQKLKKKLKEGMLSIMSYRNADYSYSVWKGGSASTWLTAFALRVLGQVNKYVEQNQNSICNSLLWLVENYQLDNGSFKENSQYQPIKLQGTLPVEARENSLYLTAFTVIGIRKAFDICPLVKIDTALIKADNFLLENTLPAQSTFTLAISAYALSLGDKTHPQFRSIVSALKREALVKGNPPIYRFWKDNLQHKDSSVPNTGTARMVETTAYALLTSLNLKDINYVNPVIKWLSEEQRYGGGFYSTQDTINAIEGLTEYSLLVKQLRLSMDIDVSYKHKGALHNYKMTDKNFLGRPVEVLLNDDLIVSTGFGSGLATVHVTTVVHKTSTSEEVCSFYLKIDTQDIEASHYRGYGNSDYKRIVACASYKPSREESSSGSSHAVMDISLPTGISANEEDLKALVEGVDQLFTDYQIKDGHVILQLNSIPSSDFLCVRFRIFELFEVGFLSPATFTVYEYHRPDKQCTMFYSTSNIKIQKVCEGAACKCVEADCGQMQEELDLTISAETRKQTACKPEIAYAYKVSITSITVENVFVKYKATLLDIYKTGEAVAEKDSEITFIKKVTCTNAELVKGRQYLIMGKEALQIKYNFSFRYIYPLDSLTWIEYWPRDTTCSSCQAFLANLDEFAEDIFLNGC

CirpT1 (Complement Inhibitor from Rhipicephalus pulchellus of the Terminal Pathway 1) (natural protein)
Kd: 10 nM

From paper doi:10.1101/647354
